Measurements published in US20060121489.

Assays:
[1] = biological target: NF-kB p65 (RelA) homodimer (UniProt Q04206); experiment: EMSA; details: 1:1 stoichiometry of p65 to the 22-mer site
[2] = biological target: NF-kB p50 homodimer (UniProt P19838); details: quoted in comparison with XBY-6
NF-kB p50 homodimer, sequence (P19838 1-433): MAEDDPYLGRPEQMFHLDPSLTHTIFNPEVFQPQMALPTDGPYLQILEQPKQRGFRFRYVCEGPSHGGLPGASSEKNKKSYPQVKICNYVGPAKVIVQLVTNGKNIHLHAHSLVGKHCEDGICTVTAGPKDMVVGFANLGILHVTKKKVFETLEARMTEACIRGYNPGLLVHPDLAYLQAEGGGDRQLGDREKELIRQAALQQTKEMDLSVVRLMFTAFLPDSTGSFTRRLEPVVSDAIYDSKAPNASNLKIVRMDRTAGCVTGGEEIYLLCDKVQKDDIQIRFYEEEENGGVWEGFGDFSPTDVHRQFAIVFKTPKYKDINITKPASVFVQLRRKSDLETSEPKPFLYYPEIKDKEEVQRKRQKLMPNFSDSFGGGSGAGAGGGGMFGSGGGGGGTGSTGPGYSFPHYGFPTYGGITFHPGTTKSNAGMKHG

NF-kB p65 (RelA) homodimer, sequence (Q04206 whole entry): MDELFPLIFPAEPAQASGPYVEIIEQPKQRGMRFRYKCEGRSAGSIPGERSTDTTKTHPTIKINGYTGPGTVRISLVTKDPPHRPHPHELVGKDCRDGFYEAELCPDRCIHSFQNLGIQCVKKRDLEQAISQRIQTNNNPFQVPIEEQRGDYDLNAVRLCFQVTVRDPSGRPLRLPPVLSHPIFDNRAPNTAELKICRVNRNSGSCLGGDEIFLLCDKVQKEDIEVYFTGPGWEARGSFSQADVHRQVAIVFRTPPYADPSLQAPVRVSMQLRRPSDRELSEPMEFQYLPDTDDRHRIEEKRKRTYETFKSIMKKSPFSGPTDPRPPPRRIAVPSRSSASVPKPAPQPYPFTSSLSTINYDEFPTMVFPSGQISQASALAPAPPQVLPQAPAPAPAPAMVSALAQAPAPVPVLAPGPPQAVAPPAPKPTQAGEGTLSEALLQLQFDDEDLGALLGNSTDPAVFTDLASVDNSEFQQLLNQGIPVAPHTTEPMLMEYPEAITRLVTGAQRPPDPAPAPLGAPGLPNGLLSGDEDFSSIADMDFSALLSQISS

IgkB promoter element 22-mer
Kd [1]: 4 nM
Kd [2]: 4 nM
